Test results as given in IntAct's records for PubMed 27905398.

B1: RNA-binding protein 7 (Homo sapiens), Q9Y580 (parent)
chain: MGAAAAEADRTLFVGNLETKVTEELLFELFHQAGPVIKVKIPKDKDGKPKQFAFVNFKHEVSVPYAMNLLNGIKLYGRPIKIQFRSGSSHAPQDVSLSYPQHHVGNSSPTSTSPSRYERTMDNMTSSAQIIQRSFSSPENFQRQAVMNSALRQMSYGGKFGSSPLDQSGFSPSVQSHSHSFNQSSSSQWRQGTPSSQRKVRMNSYPYLADRHYSREQRYTDHGSDHHYRGKRDDFFYEDRNHDDWSHDYDNRRDSSRDGKWRSSRH
partner: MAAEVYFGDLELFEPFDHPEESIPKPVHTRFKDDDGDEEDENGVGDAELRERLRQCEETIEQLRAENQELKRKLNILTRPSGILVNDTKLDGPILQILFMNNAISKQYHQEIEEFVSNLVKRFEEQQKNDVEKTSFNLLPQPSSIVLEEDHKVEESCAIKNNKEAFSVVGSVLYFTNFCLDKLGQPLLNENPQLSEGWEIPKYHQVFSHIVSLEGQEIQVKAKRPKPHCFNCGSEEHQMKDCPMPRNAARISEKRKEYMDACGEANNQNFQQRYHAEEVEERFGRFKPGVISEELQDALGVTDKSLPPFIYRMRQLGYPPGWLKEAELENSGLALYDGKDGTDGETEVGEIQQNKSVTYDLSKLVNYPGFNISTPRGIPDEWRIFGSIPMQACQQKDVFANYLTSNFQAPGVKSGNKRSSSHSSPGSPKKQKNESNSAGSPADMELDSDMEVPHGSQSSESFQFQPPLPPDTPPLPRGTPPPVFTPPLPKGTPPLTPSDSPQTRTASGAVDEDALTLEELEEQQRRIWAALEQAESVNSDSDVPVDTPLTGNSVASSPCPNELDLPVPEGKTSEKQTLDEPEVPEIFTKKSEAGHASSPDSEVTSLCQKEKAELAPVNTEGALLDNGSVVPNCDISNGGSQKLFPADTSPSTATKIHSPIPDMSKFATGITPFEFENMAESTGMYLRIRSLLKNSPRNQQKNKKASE
B2: Zinc finger CCHC domain-containing protein 8 (Homo sapiens), Q6NZY4 (parent)
chain: B1 partner
partner: B1 chain

Variants of: B1
Settings: with zchc8_human ZCCHC8, Q6NZY4

| effect of a mutation on the interaction | Variant |
| --- | --- |
| decreasing interaction strength | MGAAAAEADRTLFVGNLETKVTEEELFEEFHQAGPVIKVKIPKDKDGKPKQFAFVNFKHEVSVPYAMNLLNGIKLYGRPIKIQFRSGSSHAPQDVSLSYPQHHVGNSSPTSTSPSRYERTMDNMTSSAQIIQRSFSSPENFQRQAVMNSALRQMSYGGKFGSSPLDQSGFSPSVQSHSHSFNQSSSSQWRQGTPSSQRKVRMNSYPYLADRHYSREQRYTDHGSDHHYRGKRDDFFYEDRNHDDWSHDYDNRRDSSRDGKWRSSRH [L25E;L29E] |
| decreasing interaction strength | MGAAAAEADRTLFVGNLETKVTEELLFELFHQAGPVIKVKIPKDKDGKPKQFAFVNFKHEVSVPAAMNELNGIKLYGRPIKIQFRSGSSHAPQDVSLSYPQHHVGNSSPTSTSPSRYERTMDNMTSSAQIIQRSFSSPENFQRQAVMNSALRQMSYGGKFGSSPLDQSGFSPSVQSHSHSFNQSSSSQWRQGTPSSQRKVRMNSYPYLADRHYSREQRYTDHGSDHHYRGKRDDFFYEDRNHDDWSHDYDNRRDSSRDGKWRSSRH [Y65A;L69E] |

Variants of: B2
Settings: with rbm7_human RBM7, Q9Y580

| effect of a mutation on the interaction | Variant |
| --- | --- |
| disrupting interaction strength | L295E;L299E |
| disrupting interaction strength | F309A;M313E |
